Measured values: PMC6426777
Blank lines part the entries; values can stand above or below the substance they belong to.

Columns and labels:
[1] = biological target: recombinant C1q Lys^C170Glu mutant (human) (UniProt P02745); experiment: SPR; Biacore 3000, 25°C; C1q variants immobilised on CM5 chips by amine coupling; partners injected at 20 μl/min in 50 mM Tris-HCl, 150 mM NaCl, 2 mM CaCl2, 0.005% surfactant P20, pH 7.4; BSA reference surface; global fit to 1:1 Langmuir model; apparent KD = kd/ka
recombinant C1q Lys^C170Glu mutant (human), sequence (P02745 23-245, stated change not applied, chain 1 of 3): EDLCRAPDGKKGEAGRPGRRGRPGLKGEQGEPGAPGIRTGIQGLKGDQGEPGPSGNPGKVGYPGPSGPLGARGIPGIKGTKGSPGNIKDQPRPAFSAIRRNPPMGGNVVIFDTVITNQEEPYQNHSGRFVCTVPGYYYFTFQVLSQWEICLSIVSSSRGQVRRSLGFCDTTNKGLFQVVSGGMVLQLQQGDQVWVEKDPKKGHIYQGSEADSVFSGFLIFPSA
recombinant C1q Lys^C170Glu mutant (human), sequence (P02746 28-253, stated change not applied, chain 2 of 3, further chain): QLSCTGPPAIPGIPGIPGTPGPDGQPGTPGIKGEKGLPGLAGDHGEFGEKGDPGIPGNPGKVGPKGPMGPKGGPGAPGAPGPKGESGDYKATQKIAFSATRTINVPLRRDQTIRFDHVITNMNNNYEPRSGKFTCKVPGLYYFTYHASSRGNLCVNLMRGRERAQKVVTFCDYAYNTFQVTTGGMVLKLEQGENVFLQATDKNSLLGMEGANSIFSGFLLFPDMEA
recombinant C1q Lys^C170Glu mutant (human), sequence (P02747 other isoform, or with tags, fused parts or gaps mutant, chain 3 of 3, further chain): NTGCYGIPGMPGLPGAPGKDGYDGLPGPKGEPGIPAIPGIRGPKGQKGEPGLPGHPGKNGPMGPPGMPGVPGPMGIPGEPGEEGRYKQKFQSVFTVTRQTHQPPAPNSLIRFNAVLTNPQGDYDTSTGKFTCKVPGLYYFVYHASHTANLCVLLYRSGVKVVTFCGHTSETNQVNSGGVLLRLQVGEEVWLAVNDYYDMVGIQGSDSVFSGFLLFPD

[2] = biological target: recombinant C1q Lys^A200Asp-Lys^A201Asp mutant (human) (UniProt P02745); experiment: as above
recombinant C1q Lys^A200Asp-Lys^A201Asp mutant (human), sequence (P02745 other isoform, or with tags, fused parts or gaps mutant, chain 1 of 3): as the sequence (P02745 23-245, stated change not applied, chain 1 of 3) above, with K200D, K201D counted along it
recombinant C1q Lys^A200Asp-Lys^A201Asp mutant (human), sequence (P02746 28-253, change not shown, chain 2 of 3, further chain): as the sequence (P02746 28-253, stated change not applied, chain 2 of 3, further chain) above
recombinant C1q Lys^A200Asp-Lys^A201Asp mutant (human), sequence (P02747 29-245, change not shown, chain 3 of 3, further chain): as the sequence (P02747 other isoform, or with tags, fused parts or gaps mutant, chain 3 of 3, further chain) above, with E170K counted along it

[3] = biological target: recombinant wild-type C1q (human) (UniProt P02745); experiment: as above
recombinant wild-type C1q (human), sequence (P02745 23-245, chain 1 of 3): as the sequence (P02745 23-245, stated change not applied, chain 1 of 3) above
recombinant wild-type C1q (human), sequence (P02746 28-253, chain 2 of 3, further chain): as the sequence (P02746 28-253, stated change not applied, chain 2 of 3, further chain) above
recombinant wild-type C1q (human), sequence (P02747 29-245, chain 3 of 3, further chain): as the sequence (P02747 other isoform, or with tags, fused parts or gaps mutant, chain 3 of 3, further chain) above, with E170K counted along it

[4] = biological target: recombinant human PTX3 D48 allelic variant from HEK293 (human) (UniProt P26022); experiment: non-reducing SDS-PAGE; purified PTX3 on Tris acetate 3-8% gels without dithiothreitol, silver stain; disulfide-linked oligomers
[5] = biological target: recombinant C1q Tyr^B175Leu mutant (human) (UniProt P02745); experiment: SPR; Biacore 3000, 25°C; C1q variants immobilised on CM5 chips by amine coupling; partners injected at 20 μl/min in 50 mM Tris-HCl, 150 mM NaCl, 2 mM CaCl2, 0.005% surfactant P20, pH 7.4; BSA reference surface; global fit to 1:1 Langmuir model; apparent KD = kd/ka
recombinant C1q Tyr^B175Leu mutant (human), sequence (P02745 23-245, stated change not applied, chain 1 of 3): as the sequence (P02745 23-245, stated change not applied, chain 1 of 3) above
recombinant C1q Tyr^B175Leu mutant (human), sequence (P02746 other isoform, or with tags, fused parts or gaps mutant, chain 2 of 3, further chain): as the sequence (P02746 28-253, stated change not applied, chain 2 of 3, further chain) above, with Y175L counted along it
recombinant C1q Tyr^B175Leu mutant (human), sequence (P02747 29-245, stated change not applied, chain 3 of 3, further chain): as the sequence (P02747 other isoform, or with tags, fused parts or gaps mutant, chain 3 of 3, further chain) above, with E170K counted along it

[6] = biological target: recombinant human PTX3 (D at position 48) from CHO cells (human) (UniProt P26022)
[7] = biological target: human IgM (human)
[8] = biological target: recombinant human PTX3 A48 allelic variant from HEK293 (human) (UniProt P26022); experiment: non-reducing SDS-PAGE; purified PTX3 on Tris acetate 3-8% gels without dithiothreitol, silver stain; disulfide-linked oligomers

Substance: recombinant human PTX3 D48 allelic variant from HEK293 (from UniProt P26022 18-381) (natural protein)
stoichiometry N [4]: 8

Substance: recombinant C1s-C1r-C1r-C1s tetramer (complex)
Kd [1]: 5.29 nM
koff [1]: 0.00256 s⁻¹
kon [1]: 486000 M⁻¹ s⁻¹
Kd [3]: 6.36 nM
koff [3]: 0.00288 s⁻¹
kon [3]: 435000 M⁻¹ s⁻¹
Kd [5]: 6.75 nM
koff [5]: 0.00297 s⁻¹
kon [5]: 440000 M⁻¹ s⁻¹

Substance: human IgM (antibody)
Kd [1]: 2.48 nM
koff [1]: 0.00167 s⁻¹
kon [1]: 681000 M⁻¹ s⁻¹
Kd [2]: 3.31 nM
koff [2]: 0.00206 s⁻¹
kon [2]: 717000 M⁻¹ s⁻¹
Kd [3]: 1.92 nM
koff [3]: 0.00154 s⁻¹
kon [3]: 919000 M⁻¹ s⁻¹
Kd [5]: 0.892 nM
koff [5]: 0.00131 s⁻¹
kon [5]: 1.47e+06 M⁻¹ s⁻¹

Substance: recombinant C1q Lys^A200Asp-Lys^A201Asp mutant (from UniProt P02745 23-245; P02746 28-253; P02747 29-245) (complex)
PTX3-dependent complement activation: C4b deposition in PTX3-coated wells, C1q-depleted serum reconstituted with the C1q variant (4 μg/ml) [6]: 163 % of C1qWT

Next, values leading:

Kd [1]: 10.9 nM
koff [1]: 0.00152 s⁻¹
kon [1]: 140000 M⁻¹ s⁻¹
Kd [2]: 7.84 nM
koff [2]: 0.000634 s⁻¹
kon [2]: 98300 M⁻¹ s⁻¹
Kd [3]: 5.65 nM
koff [3]: 0.000859 s⁻¹
kon [3]: 155000 M⁻¹ s⁻¹
Substance: recombinant human PTX3 (D at position 48) from CHO cells (from UniProt P26022 18-381) (natural protein)

PTX3-dependent complement activation: C4b deposition in PTX3-coated wells, C1q-depleted serum reconstituted with the C1q variant (4 μg/ml) (% of the signal obtained with C1qWT) [6]: 30
IgM-dependent complement activation: C4b deposition in IgM-coated wells, C1q-depleted serum reconstituted with the C1q variant (4 μg/ml) (% of the signal obtained with C1qWT) [7]: 9
Substance: recombinant C1q Arg^B108Asp-Arg^B109Glu mutant (from UniProt P02745 23-245; P02746 28-253; P02747 29-245) (complex)

PTX3-dependent complement activation: C4b deposition in PTX3-coated wells, C1q-depleted serum reconstituted with the C1q variant (4 μg/ml) (% of the C1qWT value) [6]: 44.5
IgM-dependent complement activation: C4b deposition in IgM-coated wells, C1q-depleted serum reconstituted with the C1q variant (4 μg/ml) (% of the C1qWT value) [7]: 61.4
Substance: recombinant C1q Tyr^B175Leu mutant (from UniProt P02745 23-245; P02746 28-253; P02747 29-245) (complex)

stoichiometry N [8]: 8
Substance: recombinant human PTX3 A48 allelic variant from HEK293 (from UniProt P26022 18-381) (natural protein)
